Data taken from patent US20150071923A1 (published 2015).
Where two headings read alike, the source gives them in different places. One block for each binder: values may come before it.

Legend:
[1] = biological target: T1, His-tagged soluble extracellular domain of EGFR (sEGFR-H6; Sino Biologics, Cat #10001-H08H) (human, UniProt P00533 25-645); experiment: ELISA on coated sEGFR-H6; pH 6.5, 16.7 mM lactic acid, 25% human serum
T1 construct: Bought protein; also called EGFR sECD; soluble extracellular domain of EGF receptor

[2] = biological target: T1, His-tagged soluble extracellular domain …; experiment: ELISA on coated sEGFR-H6; pH 7.4, 1 mM lactic acid, 25% human serum
[3] = biological target: T1, His-tagged soluble extracellular domain …; experiment: pH-sensitive ELISA on coated sEGFR-H6
[4] = biological target: T1, His-tagged soluble extracellular domain …; experiment: ELISA on coated sEGFR-H6; pH 6.0, 16.7 mM lactic acid, 25% human serum
[5] = biological target: human epidermal growth factor receptor (EGFR) on cells and tissues (human, UniProt P00533 25-1210); experiment: cell-based or functional assay
[6] = biological target: T1, His-tagged soluble extracellular domain …; experiment: ELISA on coated sEGFR-H6; pH 6.5, 16.7 mM lactic acid, 25% human serum; remark: listed apart in the source
[7] = biological target: T1, His-tagged soluble extracellular domain …; experiment: pH-sensitive ELISA, transfected supernatant adjusted to 4 ng/mL
[8] = biological target: T1, His-tagged soluble extracellular domain …; experiment: pH-sensitive ELISA, transfected supernatant adjusted to 2 ng/mL
[9] = biological target: T1, His-tagged soluble extracellular domain …; experiment: ELISA on coated sEGFR-H6; pH 6.0, 16.7 mM lactic acid, 25% human serum; remark: listed apart in the source
[10] = biological target: T1, His-tagged soluble extracellular domain …; experiment: pH-sensitive ELISA on coated sEGFR-H6; remark: listed apart in the source
[11] = biological target: T1, His-tagged soluble extracellular domain …; experiment: pH-sensitive ELISA, transfected supernatant adjusted to 1 ng/mL
[12] = biological target: T1, His-tagged soluble extracellular domain …; experiment: ELISA on coated sEGFR-H6; pH 7.4, 1 mM lactic acid, 25% human serum; remark: listed apart in the source
[13] = biological target: T1, His-tagged soluble extracellular domain …; experiment: ELISA on coated sEGFR-H6; pH 6.5, 16.7 mM lactic acid, 25% human serum; remark: listed apart in the source
[14] = biological target: T1, His-tagged soluble extracellular domain …; experiment: ELISA on coated sEGFR-H6; pH 6.0, 16.7 mM lactic acid, 25% human serum; remark: listed apart in the source
[15] = biological target: T1, His-tagged soluble extracellular domain …; experiment: pH-sensitive ELISA on coated sEGFR-H6; remark: listed apart in the source
[16] = biological target: T1, His-tagged soluble extracellular domain …; experiment: ELISA on coated sEGFR-H6; pH 7.4, 1 mM lactic acid, 25% human serum; remark: listed apart in the source

B1: flag-tagged humanized T030F/Y104D/Q111P mutant anti-EGFR antibody (FDP-h3) (antibody, human IgG1, kappa, V domains shown)
VH: EVQLVQSGAEVKKPGATVKISCKVSGFSLFNYGVHWVRQATGQGLEWMGVIWSGGNTDYNTPFTSRFTISRDDSKNTAYLQMNSLKTEDTAVYYCARALTYYDDEFAYWGPGTLVTVSS
VL: AIQLTQSPSSLSASVGDRVTITCRASQSIGTNIHWYLQKPGQSPQLLIYYASESISGIPDRFSGSGSGTDFTLTISRLEPEDFAVYYCQQNNNWPTTFGQGTKVEIKR
notes: also called FDP-h03
D (maximum) of 4-parameter fit [1]: 3.76 OD450
EC50 [1]: 4.87 ng/mL
D (maximum) of 4-parameter fit [2]: 3.65 OD450
EC50 [2]: 32.6 ng/mL
ratio of binding activity pH 6.0/7.4 (inverse EC50) [3]: 7.53
ratio of binding activity pH 6.5/7.4 (inverse EC50) [3]: 6.69
D (maximum) of 4-parameter fit [4]: 3.79 OD450
EC50 [4]: 4.33 ng/mL

B2: huY104D-MMAE antibody-drug conjugate (antibody, human IgG1, kappa)
heavy: not shown
light: AIQLTQSPSSLSASVGDRVTITCRASQSIGTNIHWYLQKPGQSPQLLIYYASESISGIPDRFSGSGSGTDFTLTISRLEPEDFAVYYCQQNNNWPTTFGQGTKVEIKRTVAAPSVFIFPPSDEQLKSGTASVVCLLNNFYPREAKVQWKVDNALQSGNSQESVTEQDSKDSTYSLSSTLTLSKADYEKHKVYACEVTHQGLSSPVTKSFNRGEC
modifications: MMAE conjugated as described in Example 18 (maleimidocaproyl-vcPAB linker on reduced disulfide cysteines)
IC50 for cell growth inhibition of keratinocytes at pH 7.4 [5]: ~17 nM
cell growth inhibition of HT29 cells at pH 6.8; concentration for about 50% inhibition [5]: ~22 nM
cell growth inhibition of HT29 cells at pH 6.8; maximum concentration tested [5]: ~80%

B3: humanized Y104D/Q111P cetuximab mutant antibody (DP-h7) (antibody, human IgG1, kappa)
heavy: not shown
light: B2 light
notes: Full-length IgG; also called DP-h07
D (maximum) of 4-parameter fit [6]: 3.83 OD450
EC50 [6]: 6.91 ng/mL
pH 6.0/pH 7.4 OD ratio [7]: 11.3
pH 6.0/pH 7.4 OD ratio [8]: 7.21
D (maximum) of 4-parameter fit [9]: 3.83 OD450
EC50 [9]: 4.15 ng/mL
ratio of binding activity pH 6.0/7.4 (inverse EC50) [10]: 8.1
ratio of binding activity pH 6.5/7.4 (inverse EC50) [10]: 4.86
pH 6.0/pH 7.4 OD ratio [11]: 17.4
D (maximum) of 4-parameter fit [12]: 3.14 OD450
EC50 [12]: 33.6 ng/mL

B4: huY104E-MMAE antibody-drug conjugate (antibody, human IgG1, kappa)
heavy: not shown
light: B2 light
modifications: MMAE conjugated as described in Example 18 (maleimidocaproyl-vcPAB linker on reduced disulfide cysteines)
IC50 for cell growth inhibition of keratinocytes at pH 7.4 [5]: ~5.4 nM
cell growth inhibition of HT29 cells at pH 6.8; concentration for about 50% inhibition [5]: ~22 nM
cell growth inhibition of HT29 cells at pH 6.8; maximum concentration tested [5]: ~80%

Results, then the binder that gave them:

D (maximum) of 4-parameter fit [6]: 3.85 OD450
EC50 [6]: 5.87 ng/mL
D (maximum) of 4-parameter fit [13]: 3.94 OD450
EC50 [13]: 9.82 ng/mL
D (maximum) of 4-parameter fit [14]: 3.87 OD450
EC50 [14]: 4.82 ng/mL
ratio of binding activity pH 6.0/7.4 (inverse EC50) [15]: 12.3
ratio of binding activity pH 6.5/7.4 (inverse EC50) [15]: 6.04
D (maximum) of 4-parameter fit [9]: 3.92 OD450
EC50 [9]: 3.18 ng/mL
D (maximum) of 4-parameter fit [16]: 1.44 OD450
EC50 [16]: 59.3 ng/mL
ratio of binding activity pH 6.0/7.4 (inverse EC50) [10]: 14.5
ratio of binding activity pH 6.5/7.4 (inverse EC50) [10]: 7.85
D (maximum) of 4-parameter fit [12]: 3.23 OD450
EC50 [12]: 46.1 ng/mL
B5: humanized Y104E anti-EGFR antibody (E-h) (antibody, human IgG1, kappa)
heavy: not shown
light: B2 light
notes: Full-length IgG; also called huY104E; E-h07

D (maximum) of 4-parameter fit [6]: 3.89 OD450
EC50 [6]: 6.37 ng/mL
D (maximum) of 4-parameter fit [13]: 3.93 OD450
EC50 [13]: 12.1 ng/mL
D (maximum) of 4-parameter fit [14]: 3.91 OD450
EC50 [14]: 4.28 ng/mL
ratio of binding activity pH 6.0/7.4 (inverse EC50) [15]: 48.8
ratio of binding activity pH 6.5/7.4 (inverse EC50) [15]: 17.3
D (maximum) of 4-parameter fit [9]: 3.92 OD450
EC50 [9]: 3.92 ng/mL
D (maximum) of 4-parameter fit [16]: 1.83 OD450
EC50 [16]: 209 ng/mL
ratio of binding activity pH 6.0/7.4 (inverse EC50) [10]: 17.8
ratio of binding activity pH 6.5/7.4 (inverse EC50) [10]: 11
D (maximum) of 4-parameter fit [12]: 2.91 OD450
EC50 [12]: 69.8 ng/mL
B6: humanized Y104E/Q111P anti-EGFR antibody (EP-h) (antibody, human IgG1, kappa)
heavy: not shown
light: B2 light
notes: Full-length IgG; also called EP-h07

D (maximum) of 4-parameter fit [6]: 3.84 OD450
EC50 [6]: 7.57 ng/mL
D (maximum) of 4-parameter fit [13]: 3.82 OD450
EC50 [13]: 12.7 ng/mL
D (maximum) of 4-parameter fit [14]: 3.88 OD450
EC50 [14]: 6.77 ng/mL
ratio of binding activity pH 6.0/7.4 (inverse EC50) [15]: 8.33
ratio of binding activity pH 6.5/7.4 (inverse EC50) [15]: 4.44
D (maximum) of 4-parameter fit [9]: 3.89 OD450
EC50 [9]: 4.87 ng/mL
D (maximum) of 4-parameter fit [16]: 2.03 OD450
EC50 [16]: 56.4 ng/mL
ratio of binding activity pH 6.0/7.4 (inverse EC50) [10]: 6.2
ratio of binding activity pH 6.5/7.4 (inverse EC50) [10]: 3.99
D (maximum) of 4-parameter fit [12]: 3.45 OD450
EC50 [12]: 30.2 ng/mL
B7: humanized Y104D anti-EGFR antibody (D-h) (antibody, human IgG1, kappa)
heavy: not shown
light: B2 light
notes: Full-length IgG; also called huY104D; D-h07
